From paper PMC9817140

Molecular target: T1, RpoN (sigma-54) (Vibrio parahaemolyticus RIMD2210633) (UniProt Q87LE2)
T1 sequence: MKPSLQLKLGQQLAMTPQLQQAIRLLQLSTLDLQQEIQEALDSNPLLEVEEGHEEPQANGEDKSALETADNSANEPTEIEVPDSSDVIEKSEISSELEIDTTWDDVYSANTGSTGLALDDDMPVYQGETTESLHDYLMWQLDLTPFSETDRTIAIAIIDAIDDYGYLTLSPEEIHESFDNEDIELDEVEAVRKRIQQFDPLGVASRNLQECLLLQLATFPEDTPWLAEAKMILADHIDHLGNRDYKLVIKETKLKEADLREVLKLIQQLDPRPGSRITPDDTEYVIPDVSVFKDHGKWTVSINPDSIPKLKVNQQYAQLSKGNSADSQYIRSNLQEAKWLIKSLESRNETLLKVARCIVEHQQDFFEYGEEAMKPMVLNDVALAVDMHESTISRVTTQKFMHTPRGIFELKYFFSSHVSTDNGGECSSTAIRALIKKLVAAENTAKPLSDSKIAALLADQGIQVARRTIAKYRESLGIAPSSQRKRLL
Test: EMSA
Conditions: EMSA: 20 µl with 10 ng FAM probe, 4 µl EMSA buffer (10 mM NaCl, 0.1 mM DTT, 0.1 mM EDTA, 10 mM Tris pH 7.4), 1 µl poly-dIdC, 25 °C 0.5 h, 6% native PAGE

| Sequence | binding |
| --- | --- |
| GTGCCTTGTCAAAAGATATAGCCATGTTTGCCTCTACAATTAAGAACTGACCGTTATTAATAACTAAAAAACCGGAAACGCTAAAACACCTATCAGCTATTGACGTTTTAGATTGCAATAAGCAAGCCAAAGTAACTGGAATGTCGTATCACTTCGCTTACTTGAATAAAGATACACCCTGCAGAGGGAGCAGGGCAAAGTCCGACAACAGATTAGCGAGGGGAAACTCGAAATCTCATCTCATATAGACAAAATCGTCGACCTGCAGGCA (double strand) [ΔflgB promoter (RpoN site deleted)] | no binding |
| TGCCTGCAGGTCGACGATATCTTAATTCGCACCACTTTAGTGCAGACGTAGATCATTTTGGTGCAATCATTTGCACCAAACTAGCATCTAAAAACACAATTCATTGAAATTAATGGAATATTTTTTTTGGCACGGTTTTGGCTTTAGTAAACACAGCATCGATTAATGAAAAGTCAAAAAGATTAATCAATGCCGGGTTCATGAATATTTCATAAGTCGAGCTTTTACCGCTTATTAACACTGGAGGTTATCCAAG (double strand) [VP0121 promoter] | binds |
| TGCCTGCAGGTCGACGATCCTTGTTTTATCCCATGGTCAGCGGGCGCGAAGGCGGCACCGGACTTGGGTTGTCCATCTCACAAAATTTGATCGACCAGCACAACGGAAAAATCGACGTTGAAAGCTGGCCTGGCCACACCACTTTTACAATTTATTTGCCGATTTGACCTCACGAATGGATTTCGTTGAGCGCCAATTTACGGTTTTTGCTGCAAGGATTAGTAC (double strand) [VP0118 promoter] | no binding |
| TGCCTGCAGGTCGACGATCGCCGGAACATCGTCATTAATCGTACAAAAAGCAAAATTAAGAAAAATATAAAACAATCAATGGATTGTGCTGTTATTTAGCTTTGAGTCATTATTTTGGCGTTGATTTTGGTACATAGATTGCTTAAGTCGACTAATTATCAACTATACCTAAACTTTTAGGCGAAAGTGGTCGCGTATAAACATTAGACATACGTATTAAAGTGCGTATTCGCGTGACGCTTCAATTCGATTGAGATACCTCGCAGT (double strand) [flhA promoter] | no binding |
| TGCCTGCAGGTCGACGATCTGCAAGTGAAGCAGAAAATCGAAAGTATGTGACCTTTTGGGGTTGCCGCGTACGCGAATCATTGAGGCTTGCCATCGTGCAAGCCTTTATTTTACCTGAATTTACTACTCTAAATCCCACTTGGCACATCTTTTGCTTTTACTTGTCTAGGTGATCGGTATTTACCGATCTTATTTCGTTTTTGGGGGCAGGTATGGCGTCAGATCTTCTG (double strand) [flgK promoter] | no binding |
| TGCCTGCAGGTCGACGATCTTGGCTTGATAACATCATGACATTCATCTGATGCTTAGCCTGAAAACACCTCAGTTCAGGCTAAGCATGCTTTGATCTCTGGTTTGCCGCTGTTGCCGCCACATGGATCAAAATCTTGCCTCCCTTTGCAGTTTTTTTTCATTGAATATCCTTCTTGATTGCCTTTAATCTCATTCAAGTTTTTGATAAATAAGTTTATTTTTATTTTGGCATAACTATTGCTTTTACTCCGGAAGTACAGAGACTTTTTTGGAGTAA (double strand) [flgF promoter] | no binding |
| TGCCTGCAGGTCGACGATGAGCTGCTGATATGCTGGGTATGCGCCGTACAACGTTGGTTGAGAAAATGCGCAAGTATAATTTGCAGCGTTAGATCGAGCTTCAGTTCAATCACAAAAGTTATCTTTTCTGACATTAAAATCAGACATTTCTCGGTGTCAACTTATTGTCGATAACATAACGTCATGATAAATATAAAAATAGCTTGGTACGCTAATTGCTTACCAAGCTATTTTACTTTTTAGTGGCGATATTTCGACAGGCAGTGA (double strand) [flaL promoter] | no binding |
| TGCCTGCAGGTCGACGATGATATTTTATTGGCATGACATTTGCTATTTGTTGCTCAATACTAATCTGGTTGAAGTTAGCACGGACGCACTGCGTAGTATTCATCGCCTATAGATGGCGGAATAAGAATGCTCATTGATAAGTTAATCAGCAGAATCTCCGGCGCTAACTACACTAAGAGATGGAAAAGACTATCCATGTTCATAAATGGAATTGAGC (double strand) [VP1510 promoter] | no binding |
| TGCCTGCAGGTCGACGATGTCCTGTCGAAAGAATTCCTAATAACAGTATCCACTTTGAGGAAATTAGAGTTTTCCCCCTAATTTTTTTGCTTTCCGTAAACCGGAAGTTTGGTTTCCACTCTTGTTTGTAAGTCATTGATAAATATAAATAAAATTTATGGCACGTATCTTGTTTGTATCTTGGCGTATTCGAGCCGACTGTAAGGAAAGATGCATGGCGATCACATTTGAAAATGCTTTAGGTGTACATCCAG (double strand) [flgB2 promoter] | binds |
| TGCCTGCAGGTCGACGATGTGGAATGTAATGGCCGACGCAAAGAAATGGCAGAGAAGTTGGGCATAAGCCCGCGTACTCTGCGCTACAAACTTGCCAAAATGCGTGACGCGGGTATAGATATTCCGAGTTAGGTTTCACACGCGTAGCCATAAGACAAAAGTGTGAGTAAACTATACAGCTGGCGTCTTATGGCACATAAATTGCTGTGTCAATAATTAGTTTAAATAGATAGTCAAACTTTTGGCTCAGAGGTGATA (double strand) [fliE promoter] | binds |
| TGCCTGCAGGTCGACGATGTGGAATGTAATGGCCGACGCAAAGAAATGGCAGAGAAGTTGGGCATAAGCCCGCGTACTCTGCGCTACAAACTTGCCAAAATGCGTGACGCGGGTATAGATATTCCGAGTTAGGTTTCACACGCGTAGCCATAAGACAAAAGTGTGAGTAAACTATACAGCTGGCGTCTTGTCAATAATTAGTTTAAATAGATAGTCAAACTTTTGGCTCAGAGGTGATA (double strand) [ΔfliE promoter (RpoN site deleted)] | no binding |
| TGCCTGCAGGTCGACGATTCTCTTTGCCTTAATCTTATGCCGATCAAAGCACATCGGAAACTAACGCTAAAACGGTAGCAAACCCCAACTTAGTGGAATGCAAGTCACTAAAAATCATCAATTTTGATCTTTTTTAGAAAATTTTTAATTTTCAAATTAATCATTAGTGGCAAGCGACCGCCTCTAGTTAGTGACTAGGGAATATCCCAAGGCCTGAAAGAAATAGTGATAAACTAAGGAGACTAAG (double strand) [lafA promoter] | binds |
| TGCCTGCAGGTCGACGATTCTGTAAATAATAATTGAGAGTTGCTTCATAATAACTATTATTAGTTATAAATATCGCTTAATTTAAATCTAATTTAAAGATATAAAGGAGCGTATTTAAAATGAAGTTTTTGATACATCAATCATTAATTATCATTATTCAGATAATTTAATTAATACGAAATATGTCAATTAATAATGCTCTAGGAGATTAGC (double strand) [hcp2 promoter] | binds |
| TGCCTGCAGGTCGACGATTTAATCAACACGTCACATTCCTAAAATGAATTAAATATTTTCAGCTTTTTAGTCGCCTTGTCTTATAGGGAAACACTAGATGTTTTCGAGAGGAAGGCGGAACACATAAGGTGGAAAATACACTTCCTCTCAAATTTAAATAGTATCGCAAGTCAATGTTTTAAAAGAATATTCAAGTTAGGCACGTATCTTGCGATAAGACATACTTTCAAGGCATAGAGTTACGCCAATTACCAATGAGAGAGGGAGTAAGCTC (double strand) [lafB promoter] | no binding |
| TGCCTGCAGGTCGACGATTTTTGGACTCAACGTAACATTTTTCAATTTTGCCTCTCGTCACATCGCGTGAGTATCGAGTACAAAAATAAAATTTAATGTTCACCACATCCTTGTCGCCTATTGGATTTAGAACATGATGATGAGGACCACAGC (double strand) [flgM promoter] | no binding |
| TTTTGGACCATCCGTCAGTAAATCAAACCCTTCTGGATGTATCAACTGCAGCGGTAACACTTGCGCCAATTGCGCCAATTTTTGCCCAGATTGACCGCCTATTTTAACCTCTGTCGAGCCATCGCGCTGCTTATTAATGCCGATAGGTAGCTCAAATTGATCCGAGTTCAAAAAACGACCATGAACAAACAGTTCATCACACTCATTTTGAATCACACGACCAGTGAGAGAGCTTTTGAATGAGCGACCATGCCCGAGTAAATAAATCGCTTCTAGGACAATCGTCGACCTGCAGGCA (double strand) [gyrB promoter] | no binding |
